# Measurements reported in article PMC6713228 (2018).
# T1: CD20 (Homo sapiens, UniProt P11836)
# T1 chain: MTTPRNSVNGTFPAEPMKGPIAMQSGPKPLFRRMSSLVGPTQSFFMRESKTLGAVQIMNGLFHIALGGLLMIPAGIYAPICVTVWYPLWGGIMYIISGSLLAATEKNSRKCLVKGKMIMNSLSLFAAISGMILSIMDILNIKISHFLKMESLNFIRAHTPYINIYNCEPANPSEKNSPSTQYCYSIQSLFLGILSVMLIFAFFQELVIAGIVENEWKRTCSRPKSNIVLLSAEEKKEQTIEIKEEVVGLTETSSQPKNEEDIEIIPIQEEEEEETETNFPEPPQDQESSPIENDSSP
# Legend:
# CD20 (Homo sapiens) = CD20 (Homo sapiens) (UniProt P11836); conditions: cited from earlier work
# CD20 = target: T1, CD20
Molecule,Kd (CD20 (Homo sapiens)) [nM],Kd (CD20) [nM]
rituximab,4.96,
"rituximab (antibody, V domains shown, FITC-labeled rituximab) VH: QVQLQQPGAELVKPGASVKMSCKASGYTFTSYNMHWVKQTPGRGLEWIGAIYPGNGDTSYNQKFKGKATLTADKSSSTAYMQLSSLTSEDSAVYYCARSTYYGGDWYFNVWGAGTTVTVSA VL: QIVLSQSPAILSASPGEKVTMTCRASSSVSYIHWFQQKPGSSPKPWIYATSNLASGVPVRFSGSGSGTSYSLTISRVEAEDAATYYCQQWTSNPPTFGGGTKLEIK",,4.82
